tested on: Escherichia coli TOP10; test: shrunken log2 fold change of peptide-encoding DNA abundance (4.5 h post-induction vs induction); higher = less antimicrobial activity (less host growth inhibition); details: time post-induction: 4.5 h; library: site-saturation at positions 5, 18, 19, 20
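Further: peptides expressed intracellularly from a pBAD plasmid library in pooled LB shake-flask culture, induced with 0.3% L-arabinose, DNA abundance read by NGS, three biological replicates, DESeq2 with apeglm shrinkage.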

Row | Sequence | shrunken log2 fold change
1 | RRIRLRPPRLPRPRPRPENRPRP | 0.097
2 | RRIRLRPPRLPRPRPRPIPKPRP | -0.0415
3 | RRIRKRPPRLPRPRPRPFGQPRP | 0.783
4 | RRIRARPPRLPRPRPRPGCYPRP | -0.00374
5 | RRIRWRPPRLPRPRPRPPKCPRP | 0.156
6 | RRIRCRPPRLPRPRPRPEDQPRP | 1.21
7 | RRIRYRPPRLPRPRPRPGPVPRP | -0.16
8 | RRIRGRPPRLPRPRPRPPTPPRP | 1.22
9 | RRIRNRPPRLPRPRPRPQCMPRP | 2.42
10 | RRIRTRPPRLPRPRPRPCPHPRP | -0.0429
11 | RRIRIRPPRLPRPRPRPNFNPRP | -0.745
12 | RRIRYRPPRLPRPRPRPNIWPRP | -0.302
13 | RRIRSRPPRLPRPRPRPFRHPRP | -0.0389
14 | RRIRARPPRLPRPRPRPAWQPRP | 0.626
15 | RRIRPRPPRLPRPRPRPLLGPRP | 0.191
16 | RRIRERPPRLPRPRPRPLMNPRP | -0.336
17 | RRIRDRPPRLPRPRPRPDQNPRP | -0.0888
18 | RRIRDRPPRLPRPRPRPYGDPRP | -0.0996
19 | RRIRCRPPRLPRPRPRPTNLPRP | -0.656
20 | RRIRERPPRLPRPRPRPQDNPRP | -0.0327
21 | RRIRDRPPRLPRPRPRPIFPPRP | 0.19
22 | RRIRQRPPRLPRPRPRPIEHPRP | 0.0215
23 | RRIRNRPPRLPRPRPRPYSLPRP | -0.965
24 | RRIRDRPPRLPRPRPRPMTWPRP | 0.000751
25 | RRIRDRPPRLPRPRPRPNGCPRP | -0.00152

Row | Sequence | shrunken log2 fold change
26 | RRIRPRPPRLPRPRPRPYLVPRP | -0.203
27 | RRIRTRPPRLPRPRPRPNIQPRP | -0.586
28 | RRIRCRPPRLPRPRPRPMSYPRP | -0.23
29 | RRIRYRPPRLPRPRPRPSQKPRP | -0.359
30 | RRIRQRPPRLPRPRPRPKMLPRP | 0.0996
31 | RRIRHRPPRLPRPRPRPVFGPRP | 0.0859
32 | RRIRNRPPRLPRPRPRPSAMPRP | -0.188
33 | RRIRGRPPRLPRPRPRPIWWPRP | 0.922
34 | RRIRARPPRLPRPRPRPKYPPRP | -0.178
35 | RRIRRRPPRLPRPRPRPQPTPRP | 0.533
36 | RRIRIRPPRLPRPRPRPIQFPRP | -0.048
37 | RRIRARPPRLPRPRPRPSSLPRP | 0.00294
38 | RRIRKRPPRLPRPRPRPVNYPRP | -0.0716
39 | RRIRIRPPRLPRPRPRPMQSPRP | 0.0163
40 | RRIRARPPRLPRPRPRPDHTPRP | -0.155
41 | RRIRMRPPRLPRPRPRPEWAPRP | 1.36
42 | RRIRPRPPRLPRPRPRPPMGPRP | 0.325
43 | RRIRNRPPRLPRPRPRPERRPRP | 0.237
44 | RRIRSRPPRLPRPRPRPDSIPRP | 0.0681
45 | RRIRIRPPRLPRPRPRPGEPPRP | -0.0228
46 | RRIRFRPPRLPRPRPRPEARPRP | -0.137
47 | RRIRDRPPRLPRPRPRPSASPRP | 0.259
48 | RRIRHRPPRLPRPRPRPHKGPRP | -0.277
49 | RRIRARPPRLPRPRPRPTTSPRP | 0.292
50 | RRIRDRPPRLPRPRPRPDDQPRP | 0.259

Row | Sequence | shrunken log2 fold change
51 | RRIRVRPPRLPRPRPRPSSLPRP | -0.334
52 | RRIRMRPPRLPRPRPRPMNWPRP | -0.117
53 | RRIRPRPPRLPRPRPRPLGFPRP | 0.49
54 | RRIRGRPPRLPRPRPRPIHNPRP | -0.268
55 | RRIRYRPPRLPRPRPRPEANPRP | -0.127
56 | RRIRCRPPRLPRPRPRPILLPRP | -1.03
57 | RRIRERPPRLPRPRPRPCNNPRP | -0.768
58 | RRIRCRPPRLPRPRPRPGMYPRP | -0.848
59 | RRIRYRPPRLPRPRPRPKWRPRP | 0.0685
60 | RRIRHRPPRLPRPRPRPRWQPRP | 0.176
61 | RRIRIRPPRLPRPRPRPDIFPRP | -0.828
62 | RRIRFRPPRLPRPRPRPLICPRP | -0.286
63 | RRIRFRPPRLPRPRPRPAKYPRP | -0.381
64 | RRIRVRPPRLPRPRPRPARTPRP | 0.147
65 | RRIRFRPPRLPRPRPRPYYWPRP | -0.485
66 | RRIRIRPPRLPRPRPRPLYMPRP | -0.918
67 | RRIRRRPPRLPRPRPRPDGNPRP | 0.0694
68 | RRIRDRPPRLPRPRPRPAMSPRP | 0.184
69 | RRIRYRPPRLPRPRPRPRHQPRP | -0.111
70 | RRIRNRPPRLPRPRPRPGSKPRP | 0.00175
71 | RRIRWRPPRLPRPRPRPSICPRP | -0.0271
72 | RRIRKRPPRLPRPRPRPKTTPRP | 0.0195
73 | RRIRIRPPRLPRPRPRPAGRPRP | 0.132
74 | RRIRERPPRLPRPRPRPPTLPRP | 0.162
75 | RRIRDRPPRLPRPRPRPKQYPRP | -0.839

Row | Sequence | shrunken log2 fold change
76 | RRIRHRPPRLPRPRPRPTWEPRP | 0.0143
77 | RRIRKRPPRLPRPRPRPNHRPRP | -0.334
78 | RRIRTRPPRLPRPRPRPPEIPRP | 0.0182
79 | RRIRPRPPRLPRPRPRPKYNPRP | -0.633
80 | RRIRSRPPRLPRPRPRPDVYPRP | -0.0361
81 | RRIRHRPPRLPRPRPRPPHTPRP | 0.249
82 | RRIRWRPPRLPRPRPRPKVSPRP | 0.198
83 | RRIRWRPPRLPRPRPRPRMCPRP | 0.272
84 | RRIRPRPPRLPRPRPRPAVQPRP | 0.168
85 | RRIRTRPPRLPRPRPRPTWNPRP | -0.0206
86 | RRIRNRPPRLPRPRPRPRPSPRP | 0.443
87 | RRIRSRPPRLPRPRPRPEGIPRP | 0.0592
88 | RRIRPRPPRLPRPRPRPHWKPRP | -0.131
89 | RRIRSRPPRLPRPRPRPLMHPRP | -0.142
90 | RRIRARPPRLPRPRPRPQHSPRP | 0.283
91 | RRIRSRPPRLPRPRPRPVASPRP | -0.151
92 | RRIRMRPPRLPRPRPRPDMYPRP | -0.138
93 | RRIRARPPRLPRPRPRPEIKPRP | 1.77
94 | RRIRVRPPRLPRPRPRPFAFPRP | -0.38
95 | RRIRVRPPRLPRPRPRPAVTPRP | -0.269
96 | RRIRNRPPRLPRPRPRPFDRPRP | 0.0368
97 | RRIRPRPPRLPRPRPRPALYPRP | -0.0126
98 | RRIRCRPPRLPRPRPRPSCCPRP | 0.0437
99 | RRIRERPPRLPRPRPRPAFAPRP | 0.206
100 | RRIRPRPPRLPRPRPRPKDMPRP | -0.0163

Row | Sequence | shrunken log2 fold change
101 | RRIRGRPPRLPRPRPRPDCFPRP | 1.13
102 | RRIRNRPPRLPRPRPRPCHPPRP | -0.0698
103 | RRIRKRPPRLPRPRPRPPVFPRP | -0.00134
104 | RRIRIRPPRLPRPRPRPEHEPRP | -0.434
105 | RRIRPRPPRLPRPRPRPVAEPRP | 0.394
106 | RRIRERPPRLPRPRPRPTALPRP | -0.415
107 | RRIRHRPPRLPRPRPRPSWHPRP | -0.759
108 | RRIRCRPPRLPRPRPRPHVRPRP | -0.4
109 | RRIRDRPPRLPRPRPRPEMLPRP | 1.4
110 | RRIRHRPPRLPRPRPRPCTEPRP | -0.138
111 | RRIRFRPPRLPRPRPRPRLMPRP | -0.0982
112 | RRIRSRPPRLPRPRPRPAILPRP | -0.313
113 | RRIRKRPPRLPRPRPRPIHRPRP | -0.0202
114 | RRIRRRPPRLPRPRPRPTDAPRP | 0.198
115 | RRIRLRPPRLPRPRPRPLHTPRP | -0.289
116 | RRIRNRPPRLPRPRPRPAEIPRP | -0.107
117 | RRIRYRPPRLPRPRPRPHAIPRP | -0.268
118 | RRIRDRPPRLPRPRPRPPFNPRP | -0.217
119 | RRIRNRPPRLPRPRPRPTHAPRP | 0.337
120 | RRIRPRPPRLPRPRPRPNATPRP | 0.323
121 | RRIRARPPRLPRPRPRPHPGPRP | 0.219
122 | RRIRFRPPRLPRPRPRPEGDPRP | 0.0402
123 | RRIRRRPPRLPRPRPRPTMCPRP | 0.233
124 | RRIRERPPRLPRPRPRPLHPPRP | 0.309
125 | RRIRRRPPRLPRPRPRPCEEPRP | 0.218
